Numbering of substitutions follows the chain as printed.
T1: cynomolgus monkey FcγRIIa1 extracellular domain with C-terminal His-tag (cynomolgus monkey)
T1 construct: also called cyno FcγRIIa1; FcgRIIa1
T1 chain: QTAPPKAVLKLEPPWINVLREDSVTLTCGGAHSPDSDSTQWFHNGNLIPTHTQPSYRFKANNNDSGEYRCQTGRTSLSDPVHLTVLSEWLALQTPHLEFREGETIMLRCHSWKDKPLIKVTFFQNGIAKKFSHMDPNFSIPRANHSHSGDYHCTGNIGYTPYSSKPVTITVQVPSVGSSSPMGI

T2: cynomolgus monkey FcγRIIa2 extracellular domain with C-terminal His-tag (cynomolgus monkey)
T2 construct: also called cyno FcγRIIa2; FcgRIIa2
T2 chain: T1 chain with P95T, T121A, I127K, A128S, K130N, D135N, R142Q

T3: human FcγRIIb extracellular domain with C-terminal His-tag (human, UniProt P31994 43-217)
T3 construct: also called human FcgRIIb; FcgRIIb
T3 sequence: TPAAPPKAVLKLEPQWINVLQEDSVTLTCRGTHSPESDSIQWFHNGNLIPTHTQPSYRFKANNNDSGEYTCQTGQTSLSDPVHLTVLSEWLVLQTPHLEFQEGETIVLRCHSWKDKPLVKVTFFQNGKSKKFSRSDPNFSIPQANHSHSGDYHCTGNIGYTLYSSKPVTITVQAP

T4: human FcγRIIaH extracellular domain with C-terminal His-tag (human, UniProt P12318 34-217)
T4 construct: also called human FcγRIIa (type H); FcgRIIaH
T4 sequence: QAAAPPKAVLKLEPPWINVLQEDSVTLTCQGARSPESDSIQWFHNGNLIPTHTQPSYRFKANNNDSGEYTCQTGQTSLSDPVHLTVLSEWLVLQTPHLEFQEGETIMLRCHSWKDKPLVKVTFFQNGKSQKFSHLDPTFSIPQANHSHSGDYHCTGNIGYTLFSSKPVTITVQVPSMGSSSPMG

T5: cynomolgus monkey FcγRIIIaS extracellular domain with C-terminal His-tag (cynomolgus monkey, UniProt Q8SPW2 21-206 at identity 1.00))
T5 construct: also called cyno FcγRIIIaS; FcgRIIIaS
T5 chain: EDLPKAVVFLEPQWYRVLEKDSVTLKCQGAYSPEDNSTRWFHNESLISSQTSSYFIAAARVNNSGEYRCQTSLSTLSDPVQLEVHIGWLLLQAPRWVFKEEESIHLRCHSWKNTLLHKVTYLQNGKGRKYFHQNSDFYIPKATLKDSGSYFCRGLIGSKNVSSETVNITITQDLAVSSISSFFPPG

T6: cynomolgus monkey FcγRIIa3 extracellular domain with C-terminal His-tag (cynomolgus monkey)
T6 construct: also called cyno FcγRIIa3; FcgRIIa3
T6 chain: T1 chain with P95T, T121A, A128S, H133P, D135N

T7: human FcγRIIaR extracellular domain with C-terminal His-tag (human, UniProt P12318 34-217)
T7 construct: also called human FcγRIIa (type R); FcgRIIaR
T7 chain: T4 sequence with H134R

T8: cynomolgus monkey FcγRIIb extracellular domain with C-terminal His-tag (cynomolgus monkey)
T8 construct: also called cyno FcγRIIb; cynoFcγRIIb
T8 chain: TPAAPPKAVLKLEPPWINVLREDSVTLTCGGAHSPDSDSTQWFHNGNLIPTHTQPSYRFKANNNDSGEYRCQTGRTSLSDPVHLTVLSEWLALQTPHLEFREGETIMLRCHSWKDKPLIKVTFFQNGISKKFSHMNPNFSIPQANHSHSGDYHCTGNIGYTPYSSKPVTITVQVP

T9: cynomolgus monkey FcγRIIb extracellular domain, His-tagged (cynomolgus monkey)
T9 construct: also called cyno FcγRIIb; cynoFcgRIIb
T9 chain: T8 chain

T10: cynomolgus monkey FcγRIIIaS extracellular domain, His-tagged (cynomolgus monkey, UniProt Q8SPW2 21-206 at identity 1.00))
T10 construct: also called cyno FcγRIIIaS; cynoFcgRIIIaS
T10 chain: T5 chain

T11: human FcγRIIaH extracellular domain, His-tagged (human, UniProt P12318 34-217)
T11 construct: also called human FcγRIIa (type H); FcgRIIaH
T11 sequence: T4 sequence

B1: M103205H795-MY219 (heavy chain) with M103202L889-SK1 (light chain) (antibody, human IgG1, kappa, name in EU numbering)
heavy: QVTLKESGPVLVKPTETLTLTCTVSGIDLSHDDISWVRQAPGKGLEWVGIISYAGSTYYASWAKGRLTISKDTSKNQVVLTMTNMDPVDTATYYCARGVPAYSHGGDLWGQGTLVTVSSASTKGPSVFPLAPSSKSTSGGTAALGCLVKDYFPEPVTVSWNSGALTSGVHTFPAVLQSSGLYSLSSVVTVPSSSLGTQTYICNVNHKPSNTKVDKKVEPKSCDKTHTCPPCPAPELLGYPSVFLFPPKPKDTLMISRTPEVTCVVVDVSDEDPEVKFNWYVDGVEVHNAKTKPREEQYNSTYRVVSVLTVLHQDWLNGKEYKCKVSNKALPKPIEKTISKAKGQPREPQVYTLPPSREEMTKNQVSLTCLVKGFYPSDIAVEWESNGQPENNYKTTPPVLDSDGSFFLYSKLTVDKSRWQQGNVFSCSVMHEALHNHYTQKSLSLSP
light: DIVMTQSPATLSLSPGERATLSCTSSQSVYHANWLSWFQQKPGQPPKLLIYWASTLAYGVPSRFSGSGSGTDFTLTISSLQPEDAATYYCAGGYGGGRYAFGQGTKVEIKRTVAAPSVFIFPPSDEQLKSGTASVVCLLNNFYPREAKVQWKVDNALQSGNSQESVTEQDSKDSTYSLSSTLTLSKADYEKHKVYACEVTHQGLSSPVTKSFNRGEC
notes: Substitutions introduced into M103205H795-SG1; positions in EU numbering
B2: M103205H795-MY271 (heavy chain) with M103202L889-SK1 (light chain) (antibody, human IgG1, kappa, name in EU numbering)
heavy: B1 heavy with G238V, Y239G, P398K
light: B1 light
notes: as for B1
B3: M103205H795-MY273 (heavy chain) with M103202L889-SK1 (light chain) (antibody, human IgG1, kappa, name in EU numbering)
heavy: B1 heavy with G238L, Y239G, P398K
light: B1 light
notes: as for B1
B4: M103205H795-MY213 (heavy chain) with M103202L889-SK1 (light chain) (antibody, human IgG1, kappa, name in EU numbering)
heavy: B1 heavy with G238N, Y239G, P398K
light: B1 light
notes: as for B1
B5: M103205H795-MY228 (heavy chain) with M103202L889-SK1 (light chain) (antibody, human IgG1, kappa, name in EU numbering)
heavy: B1 heavy with Q297L
light: B1 light
notes: as for B1
B6: M103205H795-MY308 (heavy chain) with M103202L889-SK1 (light chain) (antibody, human IgG1, kappa, name in EU numbering)
heavy: B1 heavy with G238T, Y239G, D270E
light: B1 light
notes: as for B1
B7: M103205H795-MY143 (heavy chain) with M103202L889-SK1 (light chain) (antibody, human IgG1, kappa, name in EU numbering)
heavy: B1 heavy with G238S, Y239G, D270E, K332A, P398M
light: B1 light
notes: as for B1
B8: M103205H795-MY270 (heavy chain) with M103202L889-SK1 (light chain) (antibody, human IgG1, kappa, name in EU numbering)
heavy: B1 heavy with G238H, Y239G, P398K
light: B1 light
notes: as for B1
B9: M103205H795-MY272 (heavy chain) with M103202L889-SK1 (light chain) (antibody, human IgG1, kappa, name in EU numbering)
heavy: B1 heavy with G238Q, Y239G, P398K
light: B1 light
notes: as for B1
B10: M103205H795-MY269 (heavy chain) with M103202L889-SK1 (light chain) (antibody, human IgG1, kappa, name in EU numbering)
heavy: B1 heavy with G238M, Y239G, P398K
light: B1 light
notes: as for B1
B11: M103205H795-MY274 (heavy chain) with M103202L889-SK1 (light chain) (antibody, human IgG1, kappa, name in EU numbering)
heavy: B1 heavy with G238T, Y239G, P398K
light: B1 light
notes: as for B1
B12: M103205H795-MY281 (heavy chain) with M103202L889-SK1 (light chain) (antibody, human IgG1, kappa, name in EU numbering)
heavy: B1 heavy with G238Q, Y239G, Q297L
light: B1 light
notes: as for B1
B13: M103205H795-MY453/M103202L889-SK1 (antibody, human IgG1, kappa, name in EU numbering)
heavy: B1 heavy with P234R, G238T, Y239G
light: B1 light
B14: M103205H795-MY454/M103202L889-SK1 (antibody, human IgG1, kappa, name in EU numbering)
heavy: B1 heavy with P234S, G238T, Y239G
light: B1 light
B15: M103205H795-MY452/M103202L889-SK1 (antibody, human IgG1, kappa, name in EU numbering)
heavy: B1 heavy with P234Q, G238T, Y239G
light: B1 light
B16: M103205H795-MY455/M103202L889-SK1 (antibody, human IgG1, kappa, name in EU numbering)
heavy: B1 heavy with P234T, G238T, Y239G
light: B1 light
B17: M103205H795-MY457/M103202L889-SK1 (antibody, human IgG1, kappa, name in EU numbering)
heavy: B1 heavy with P234W, G238T, Y239G
light: B1 light

Biological target: T1, cynomolgus monkey FcγRIIa1 …
Assay: SPR; KD of SG1 / KD of variant

| Binder | KD fold (SG1 = 1) [fold] |
| --- | --- |
| B1 | 0.9 |
| B2 | 4.2 |
| B3 | 0.9 |

Biological target: T2, cynomolgus monkey FcγRIIa2 …
Assay: SPR; KD of SG1 / KD of variant

| Binder | KD fold (SG1 = 1) [fold] |
| --- | --- |
| B4 | 9.8 |
| B5 | 1.6 |
| B6 | 1.1 |

The binders below were run against T3, human FcγRIIb extracellular domain with … (assay: SPR; KD of SG1 / KD of variant).

| Binder | KD fold (SG1 = 1) [fold] |
| --- | --- |
| B7 | 6.8 |
| B8 | 1.8 |
| B9 | 3.8 |

Each binder was assayed against T4, human FcγRIIaH extracellular domain … (assay: SPR; KD of SG1 / KD of variant).

| Binder | KD fold (SG1 = 1) [fold] |
| --- | --- |
| B10 | 2.8 |
| B11 | 8.5 |
| B12 | 5.3 |

Biological target: T5, cynomolgus monkey FcγRIIIaS …
Assay: SPR; KD of SG1 / KD of variant

| Binder | KD fold (SG1 = 1) [fold] |
| --- | --- |
| B7 | 1.29 |
| B4 | 0.19 |
| B1 | 0.06 |
| B5 | 0.04 |
| B10 | 1.64 |
| B8 | 0.33 |
| B2 | 0.41 |
| B9 | 1.24 |
| B3 | 0.21 |
| B11 | 0.58 |
| B12 | 0.49 |
| B6 | 0.16 |

Biological target: T6, cynomolgus monkey FcγRIIa3 …
Assay: SPR; KD of SG1 / KD of variant

| Binder | KD fold (SG1 = 1) [fold] |
| --- | --- |
| B2 | 5.5 |
| B6 | 1.5 |

What follows are binders tested against T12, human FcγRIIIaV extracellular domain with C-terminal His-tag (human, UniProt P08637 17-208) (assay: SPR; KD of SG1 / KD of variant).
T12 construct: also called human FcgRIIIaV; FcgRIIIaV
T12 sequence (P08637 17-208 F176V): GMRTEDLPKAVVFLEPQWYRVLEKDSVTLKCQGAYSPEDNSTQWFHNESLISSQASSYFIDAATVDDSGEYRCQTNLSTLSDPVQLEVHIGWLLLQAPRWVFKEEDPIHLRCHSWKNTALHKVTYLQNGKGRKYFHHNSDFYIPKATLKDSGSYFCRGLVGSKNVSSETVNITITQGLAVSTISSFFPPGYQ

| Binder | KD fold (SG1 = 1) [fold] |
| --- | --- |
| B7 | 0.51 |
| B4 | 0.07 |
| B1 | 0.01 |
| B5 | 0.01 |
| B11 | 0.32 |
| B6 | 0.09 |

Biological target: T7, human FcγRIIaR extracellular domain …
Assay: SPR; KD of SG1 / KD of variant

| Binder | KD fold (SG1 = 1) [fold] |
| --- | --- |
| B7 | 13.1 |
| B5 | 6.9 |
| B8 | 3 |
| B2 | 4 |

Biological target: T8, cynomolgus monkey FcγRIIb extracellular …
Assay: SPR; KD of SG1 / KD of variant

| Binder | KD fold (SG1 = 1) [fold] |
| --- | --- |
| B7 | 3.9 |
| B4 | 11.3 |
| B8 | 3.6 |

Biological target: T9, cynomolgus monkey FcγRIIb extracellular …
Assay: SPR (BIACORE), antibody captured, FcγR analyte, 25 C; KD of SG1 divided by KD of variant

| Binder | KD fold (SG1 = 1) [fold] |
| --- | --- |
| B13 | 0.9 |
| B14 | 1.8 |

Biological target: T10, cynomolgus monkey FcγRIIIaS …
Assay: as above

| Binder | KD fold (SG1 = 1) [fold] |
| --- | --- |
| B15 | 0.2 |
| B13 | 0.2 |
| B14 | 0.2 |
| B16 | 0.2 |

The binders below were run against T11, human FcγRIIaH extracellular domain, … in the same assay as above.

| Binder | KD fold (SG1 = 1) [fold] |
| --- | --- |
| B15 | 2.9 |
| B16 | 2.7 |
| B17 | 5.6 |

Each binder was assayed against T13, human FcγRIIIaV extracellular domain, His-tagged (human, UniProt P08637 17-208) in the same assay as above.
T13 construct: also called human FcγRIIIa (V158); FcgRIIIaV
T13 sequence (P08637 17-208 F176V): as above

| Binder | KD fold (SG1 = 1) [fold] |
| --- | --- |
| B13 | 0.2 |
| B14 | 0.2 |
